In a protein production outcome set (Wang et al. 2014):

Assay: label from the status in PepcDB records

Sequence | protein production
MTLAVTAQPALAADRGHSVPLRIATYNIHAGAGSDGVFDLDRQAAALRALDADVIGLQEVDVHWGARSQGLDVAGELARRLGMRVSFAPIYSLDPVTAGEPRREYGVAVLSRFPVRSATNHEITRLSTQDENPLPAPAPGFGEVTLKVRGVPVQVFVTHLDYRADPAVRRAQVADTRRIMARERAELPGAHQFLLGDFNAEPAAPELAPLWKELSDAGAGTPATYPAQAPVKRIDYVTAGKDVRIRRTAVPEEPAASDHRPVVADVSLPRRTPGRD | failed
MTLDLFAPQPKTNLLPYDGDVEDYGCFISTAEAEQYFQYFLKHLAWRHDEARLYGKHFITPRQVAWYGDDHYRYAYSGIMRDSLPWDPQLLILKQQIEQTLAERFNSCLANLYQEGTQGMAWHSDGDMSLAKQTTIASLSLGATRKFCFRHLRTKEKIEMQLQSGQLIVMRGETQQHWQHAIMKSQKVIHPRINLTFRQFLLLEHHHHHH | failed
MTLEWEEFLDPYIQAVGELKIKLRGIRKQYRKQNKHSPIEFVTGRVKPIESIKEKMARRGITYATLEHDLQDIAGLRVMVQFVDDVKEVVDILHKRQDMRIIQERDYITHRKASGYRSYHVVVEYTVDTINGAKTILAEIQIRTLAMNFWATIEHSLNYKYQGDFPDEIKKRLEITARIAHQLDEEMGEIRDDIQEAQALFDPLSRKLNDGVGNSDDTDEEYR | not failed
MTLITVVFVAFALLVIFYTNFMTHTLCERKQIAASRQPGVFRVINVCITILLISSYIEIIFHGK | failed
MTLKTFFNFTRIQTLPAALLSPIAGCLFAFWYFGSFHFWPTLLFFIGLASINLFVSAWNNLMDYQKALDPEYKKWNIIVAKSINPKLALNICLALLAIDVVVGLIVLFLTNLAILPIGGLCFLIAIFYTYGPFAFSRFPLGEILAGLCEGFFGFFLAVYINSYDKGYFFINFDRNWFMTWTWDFKILLPILLVGLMCFVQNFNIMFSDNICDLEQDIRNERYTLPYYLKIPLSLKVFTGLYLFAGLCILIAIALGILPIWSLLMSIIALKVIPNIKKFRAKQSKSETFHLQIDNLMLFNASLALTLLLGIIFK | failed
MTLLEAISNAVANQDKVDSQSDYPIPLSHDGIFANLKPKLENPNLGTLVNPISGWGISESDVEVIDLGKKFSSKLKRKLKDTNGFVKDEFVKMLKQFLEKIGEKVGISEAESEMVLGDQAGSEIQILVEKNGFLMGRDVSGLVLKGCISLEMWELVEILISNSLVDHSSYSYLVSNLVEKQRSDLLCVVIKEASDLGATELLSILKYFLCPSKEAISTMAKVREEWESQAMLAIEKVSNTELSKKSKVAEEASILLMVAHDGFSTSELCLHYLLASRNVDEVMFASAVSKLNGNEMGSFIRYLSKWMKKYEMFPQAGPCPKAASKLGLKLCNWVPELTDITKCLGLLIDENFSTLVLYSDLHEELKSIARVADGLASESKLSCFVANVVESLKLGAARN | failed
MTLLVGLGNPTLRYAHTRHNAGFDILDSLVSELDLSFTFSPKHNAFLCVYKDFIFLKPQTYMNLSGESVLSAKNFYKTKELLIVHDDLDLPLGVVRFKNGGGNGGHNGLKSIDLLCSNSYYRLRVGISKGIGVIEHVLSKFHKNEEPLKNAAFEHAKNALKFFIESHDFNAMQNRFTLKKPLKIES | failed
MTLNRILWNYLIAPTVITIAVCGCTTQTPNTQDLIAQSPKDSQLVRTLSARSDSGYSVAYSPSSVGTILASAGAKSIKLWNPNTGKLLRTLSGQAFTVSFSPDGQILASGSQDGSLNLWDVQTGKLIRTLQHSEPVLGVVFSPDGQTLVSNLDLGSIIRLWNWRTGEIIRIKDDPDAYQKGFENFKTQPATFSLDGQTLFATSGSGSMLQSWNLKTSKRTGSFDAKSSINAVAISPDGNTLATGIRDNAIKLWNINDGKLIHTLTGHQGQVRTVAFSPDGTLLASGSSDGTVKLWNATTGKEINTFTAHKEQVWSVAFNPDGKTLASTGQDGSVKIWGVSPQ | failed
MTLQLNFGRVEDMNKSSLTTTALTILRVIAGFLFAAHGWQKFNEFTIAGTQASFTQMGVPGASAVAPIVATLELVGGIALIIGLLTRVFAALLAVNMLGALFLVHAPAGVFVGNGGYELVLLFAGAALALALAGAGRISADAALFGRQSSKLRVLA | failed
MTLRPDPTFYPSAKLAMEGPVEKLAFTLMLSPDASKPDGLAVVDVDPTSEKFGQIVHQLIMPNKGDEFHHFGWNACSSALSPLTGHAFLERRYLIIPGIRSSRIYIVDVKEPLKAKIHKIIEPEEVFAKTGYSRPHTIHCGPEGIYVSTLGGGGEDGTDGPPGIFILDCETFEILGRYEMDRGEQTKHYDFWWNLPRDYMVSSEWGLPPQFENGIVPEDLLSNKYGHKIHFWKLRDRKNVQTIDLGANHQMALEIRPAHDPSKDYGFCGVVVDTTNLQGAIFTWWQKDDGTFEAKKTITIDPVPADADDLPDLLKGFGACPPLVTDIDLSLDDKYLYVACWGLGEMHQYDVSDPMNPVLTGKVEIGGIVKKTPHPNGKTFGYGPQMVEISRDGKRVYWTNSLYSTWDEQFYPGDRGAAMVMANVGENGGLTLDKDFWVDFPAGYRSHQIRLEGGDCSTDSFCYPSV | failed
MTLSRSSADDSTNNANRSYSAVAGTDNKRKRDEDSSDYVGVAESLEMLKKQEIDADHMAASAQQTLISWRSGENSRSLSSSGECSSSNRPESTRLQIFVRMMSGGKTIVIHAEKYDTVEKLHQRIEWKTKIPALEQRVIYKGKQLQRENSLTYYSIEQDASLQLVARMQSTEHPVAWQTIDDIMYTISRMYKGENLQSNINEKIVTFFAMIPVESDESIAKYLNIFSNSSVPAALVMLYASSLERNKSCAKSSVKLFLSNCVALPKNQKNYCLPIVLEFCKLLRKVCPDQKLYVTCRNTLGSMLETFDNPHGVYNDQYETFGVEIFPFFTELTGLLLNELAQNSGPSFCDFQKVSSFWQQLRKVIELKVAFPIPIVLPMQSTALEAEIRHLHRLFGSLLTTMDLCMCRVESSLADKEVGNSETMSSSWSQYLSILKIINSMSNIYQGAKGQLAVMLNKNKVSFSALVVKFAKRGDDHQWIFEYKEATNFEARRHLAMLLFPDVKEDFEEMHEMLIDRSNLLSESFEYIVGASPEALHGGLFMEFKNEEATGPGVLREWFYLVCQEIFNPKNTLFLRSADDFRRFSPNPASKVDPLHPDFFEFTGRVIALALMHKVQVGVLFDRVFFLQLAGLKISLEDIKDTDRIMYNSCKQILEMDPEFFDSNAGLGLTFVLETEELGKRDTIELCPDGKLKAVNSKNRKQYVDLLIERRFATPILEQVKQFSRGFTDMLSHSVPPRSFFKRLYLEDLDGMLRGGENPISIDDWKAHTEYNGFKETDRQIDWFWKILKKMTEEEQRSILFFWTSNKFVPVEGFRGLSSKLYIYRLYEANDRLPLSHTCFYRLCIPRYPTITLMEQRLRLIAQDHVSSSFGKW | failed
MTLTRDSLLTLEAYAKVRRQEHARVIAHKKRRAVSIGNHLRLLFEDETTIRYQIHEMLHIEKIFDEDGIQAELDAYLPLVPDGSNLKATLQIEYENETQRRAALARLVGIEDRVFLRVDDEAPVYAIADEDLERDTAEKTSAVHFLRFELGDAMKAKLKAGAPLSIGCDHPHYPIQAARIDPDVAASLAGDLD | not failed
MTLTSGDKQGNTPGQASDTERWASLIGGGALVLLGLRQASLRGVLTALAGGGLIYQGATKQSTIQQAQEAIGINKPIKVEKTVTINKPADELYRYWHNFENLPTFMKHLKSVKVYNEKRSHWIANAPLGNSVEWDADILEDRENEFISWASAEGADVENSGFVRFQKAPGDVPGQAASRLRGTEVKVVLEYNLPGGALAAVVAKLFGEEPEQQIGDELRRFKMLMEAGEIATTEGQPSGRK | failed
MTLVLILLALIAFIVLSTTRLKLHPFLALLAAALIAGFAYQVPTAEIVKTVTGGFGSILGYIGIVIVLGTIIGVILERSGAAITMAESVIRLLGERFPTLTMSIIGYLVSIPVFCDSGFVILNSLKNALAARMKISTIAMSVALATGLYATHTFVPPTPGPIAAAGNLGLDASLGLVIVVGLVVAFVTAMAGMWWANRFVGKDIPLVDDGQVVQTEEDFSELRARYGKLPSATQAFAPIFVPILLICLGSVAVFPSKPLGEGVLFACLNFLGQPVIALLVGLALACTLLKGQSKREEFHERVVEGIQSAAPILLITGAGGAFGAMLKITPLGDYLGSTLSALGIGLFMPFVVAAALKTAQGSTTVALVTTSALVAPLLPQLGLDSEMGRVLTVMAIGAGAMTVSHANDSFFWVVTQFSRMTVSTAYRAQTLATLVQGIAGMLAVWLLSLVLL | failed
MTLWQLIKAEIRSVLTNPVVTLTVFGGVVFYSFLYPLPYAQQTPREQPIAVVNLDGSQTSLKLERMVDATPQVKIVSRLHTVEDAKQAFLNREITGFLVIPEHFYKDVMLGKSPTLAYAADASYFLVYGTVVEGLAQAGGTLGAQVKVSKMVIEGVPLSLASHNYSAIKLNMKPTFNPTMGYIEYVVPAVFVLILQQTLIMAVGLQTGSQRHGRGYWSQVSTGSLLLVRTLVFIAIYYLLSAYYFGFSFERLSVNHIAKAGELLTMLFPFLLGCCGLGFWLGYLLPRRELVTLVVLVSSMPLIFLAGFIWPVESIPAPLLWIADLSPSTWSIKGFLALNQMGATWQQVAKHWTALWLLVALWGGVAYWIAKRNNKPVVTESLS | failed
MTMLDAAAPPDLAGLFAPAQRRSRTVDWQEPGPVARAAMAMSGLEVMQAIRDGRLPPPPLARLIGFKMAEVHRGRIVMQLDPDQSLENTAGLLHGAIAAALLDTAMGCAISTQQPAGQGSVTMDLKLSYLRPLSVRSGTIVAEGRVVKLGRQSSYTEGFVYDGAGKLAVHATATFAMLGAGPVAAPHPHES | failed
MTMLLDGGPQFPGLGVGSFGAPRHHEMPNREPAGMGLNPFGDSTHAAAAAAAAAAFKLSPAAAHDLSSGQSSAFTPQGSGYANALGHHHHHHHHHHHTSQVPSYGGAASAAFNSTREFLFRQRSSGLSEAASGGGQHGLFAGSASSLHAPAGIPEPPSYLLFPGLHEQGAGHPSPTGHVDNNQVHLGLRGELFGRADPYRPVASPRTDPYAAGAQFPNYSPMNMNMGVNVAAHHGPGAFFRYMRQPIKQELSCKWIDEAQLSRPKKSCDRTFSTMHELVTHVTMEHVGGPEQNNHVCYWEECPREGKSFKAKYKLVNHIRVHTGEKPFPCPFPGCGKIFARSENLKIHKRTHTGEKPFKCEFEGCDRRFANSSDRKKHMHVHTSDKPYICKVCDKSYTHPSSLRKHMKVHESQGSDSSPAASSGYESSTPPAIASANSKDTTKTPSAVQTSTSHNPGLPPNFNEWYV | not failed
MTMLLSIIVPTFKPQKTYFEECLFSLFNQTMFHYLYEVIVVLNGDIDTQYTDMILDIFAYKPAGLYCRLIKTDQAGVSNARNLGIDAAKGQYIGFVDDDDIVSSDYLEELCKISSRNIVGVSNVHTFRKTIEEKEDNFFACRIIQQRECQYSLFRNRAILAFPVAKLIHRDIIGNRRFNPRFKNGEDALFMTEISDLIGGFRFTKEYTTYYVRERAGSASRRPLKRGQLCWDTFMLIKAYVSIYLSSPFSYNFLLFASRIPGSIKGAIKLSRNTAFFLEHHHHHH | failed
MTMMTATQALSVNPATGQTLAAMPWANAQEIEHALSLAASGFKKWKMTSVAQRAQTLRDIGQALRAHAEEMAQCITREMGKPIKQARAEVTKSAALCDWYAEHGPAMLNPEPTLVENQQAVIEYRPLGVILAIMPWNFPLWQVLRGAVPILLAGNSYLLKHAPNVTGCAQMIARILAEAGTPAGVYGWVNANNEGVSQMINDPRIAAVTVTGSVRAGAAIGAQAGAALKKCVLELGGSDPFIVLNDADLELAVKAAVAGRYQNTGQVCAAAKRFIVEEGIAQAFTDRFVAAAAALKMGDPLVEENDLGPMARFDLRDELHQQVQASVAEGARLLLGGEKIAGEGNYYAATVLADVTPDMTAFRQELFGPVAAITVAKDAAHALALANDSEFGLSATIFTADDTLAAEMAARLECGGVFINGYSASDARVAFGGVKKSGFGRELSHFGLHEFCNVQTVWKNRV | failed
